For the experiment, the target named is His-SUMO-FGF23 (N-terminal domain of human FGF23, wild type) (human) (UniProt Q9GZV9). Briefly: ELISA. (In an ELISA, binding on a coated surface is turned into a signal by an enzyme label.)
His-SUMO-FGF23 (N-terminal domain of human FGF23, wild type) (human), sequence (Q9GZV9 25-204): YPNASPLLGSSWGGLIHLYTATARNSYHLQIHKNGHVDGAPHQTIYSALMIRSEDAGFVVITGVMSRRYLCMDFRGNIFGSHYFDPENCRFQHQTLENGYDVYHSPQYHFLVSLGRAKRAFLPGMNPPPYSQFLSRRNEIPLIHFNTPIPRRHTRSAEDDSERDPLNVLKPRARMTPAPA
Burosumab VL:S67Y had a Kd of 0.73 nM.

Substance Burosumab VL:T69D returned a Kd of 0.86 nM.

As for Burosumab VL:S52D, the Kd is 0.7 nM.

One may read the Kd as a measure of binding affinity in units of concentration. Low readings indicate tighter binding, high ones weaker binding.

The record behind these values is paper PMC9427789.
